{"source": "patent US20250129169A1", "about": "(Stanford University, published 2025)", "key": {"[1]": {"target": "T1, human IFNAR2 ECD (human, UniProt P48551 27-243)", "T1 construct": "extracellular domain; Immobilized for SPR under the same conditions as for the IL-2 specific VHHs", "T1 sequence (looked up)": "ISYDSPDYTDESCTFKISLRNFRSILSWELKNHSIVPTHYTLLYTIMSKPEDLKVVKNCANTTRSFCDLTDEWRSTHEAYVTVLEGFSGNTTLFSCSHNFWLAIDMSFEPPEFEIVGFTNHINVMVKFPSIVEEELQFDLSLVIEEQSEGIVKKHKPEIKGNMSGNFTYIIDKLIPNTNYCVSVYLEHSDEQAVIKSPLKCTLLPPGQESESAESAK", "test": "SPR; human IFNAR2 ECD immobilized, VHH as analyte; binding constants from kinetic fits", "method": "FIGS. 8A-8D depict signaling kinetics and gene expression driven by Type I Interferon surrogate ligands. (A) SPR sensorgrams displaying dose-dependent binding of IFNAR2 VHHs to immobilized human IFNAR2 ECD. SPR experiments were performed using the same conditions as for IL-2 specific VHHs. Binding constants were determined from kinetic fitting and summarized in (B). (C) qRT-PCR analysis of mRNA level of indicated genes in human primary bronchial/tracheal epithelial cells treated with 10 nM surrogate ligands or IFNω for 8 hr. (D) qRT-PCR analysis of mRNA level of indicated genes in PBMCs treated with 10 nM surrogate ligands or IFNω for 8 hr."}, "[2]": {"target": "T2, human IL-10Rβ ECD (human, UniProt Q08334 20-220)", "T2 construct": "extracellular domain; Immobilized for SPR under the same conditions as for the IL-2 specific VHHs", "T2 sequence (looked up)": "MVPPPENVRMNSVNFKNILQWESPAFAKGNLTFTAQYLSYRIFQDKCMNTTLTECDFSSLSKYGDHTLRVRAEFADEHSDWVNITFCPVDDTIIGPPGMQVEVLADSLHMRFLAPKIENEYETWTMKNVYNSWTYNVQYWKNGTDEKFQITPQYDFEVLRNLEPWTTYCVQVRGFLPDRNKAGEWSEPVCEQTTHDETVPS", "test": "SPR, kinetic fit, immobilized human IL-10Rβ ECD", "method": "(A) SPR sensorgrams displaying dose-dependent binding of IL-10Rβ VHHs to immobilized human IL-10Rβ ECD. SPR experiments were performed using the same conditions as for IL-2 specific VHHs. Binding constants were determined from kinetic fitting and summarized in (B)."}, "[3]": {"target": "T3, Human IL-2Rβ ECD (human, UniProt P14784 27-240, biotinylated (site not stated))", "T3 construct": "extracellular domain; Biotinylated and held on a streptavidin chip for SPR; also called biotinylated human IL-2Rβ ECD", "T3 sequence (looked up)": "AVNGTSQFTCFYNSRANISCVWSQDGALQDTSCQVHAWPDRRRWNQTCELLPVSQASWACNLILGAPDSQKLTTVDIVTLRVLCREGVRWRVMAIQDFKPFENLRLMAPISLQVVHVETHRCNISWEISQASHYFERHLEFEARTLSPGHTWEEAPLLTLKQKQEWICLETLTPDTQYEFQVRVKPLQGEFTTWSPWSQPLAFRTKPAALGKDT", "test": "SPR; biotinylated human IL-2Rβ ECD on streptavidin chip, VHH as analyte; KD from fit to steady-state responses [Cont.]", "method": "(§1) FIGS. 2A-2H show data on SPR validation of IL-2Rβ- and γc-VHHs and agonist screening in YT-1 cells. (A) Biotinylated human IL-2Rβ ECD was immobilized on a streptavidin (SA) sensor chip, and varying concentrations of IL-2Rβ VHH were applied to determine binding parameters using SPR. Sensorgrams are shown on the left, and steady state binding is plotted on the right. Binding affinities (KD) were determined by fitting to steady state response values. (B) Biotinylated human γC ECD was immobilized on a SA chip, and varying concentrations of γc VHH were flowed over the chip to determine binding. […] (C) Steady-state binding affinities between VHH/scFv and IL-2R, as determined by SPR. Values for scFv affinities are derived from patent US20160367664A1 (Wang et al., 2016). (D) Table of pSTAT5 Eₘₐₓ values for the indicated VHH pairings. (E) Tuning IL-2 activity via generation of acid-base VHH zipper pairings. (F) Tuning IL-2 activity via generation of 2:1 β:γc or γc:β stoichiometries. VHH binding modules are linked together in a tripartite (β-γc-β or γc-β-γc) manner. Graph axes are represented as in (E). (G) Dose-response relationship of pSTAT5 geometric mean flurorescence intensities (gMFI) of selected agonists. (H) Corresponding histograms showing STAT5 activity in YT-1 cells treated with human IL-2 vs. IL-2 surrogate agonists at saturating concentration."}, "[4]": {"target": "T3, Human IL-2Rβ ECD", "test": "SPR, steady-state binding affinity (drawn table)", "method": "as §1"}, "[5]": {"target": "IL-2Rβ/γc receptor heterodimer on cells (human) (UniProt P14784)", "sequence (P31785 23-369, one chain of several)": "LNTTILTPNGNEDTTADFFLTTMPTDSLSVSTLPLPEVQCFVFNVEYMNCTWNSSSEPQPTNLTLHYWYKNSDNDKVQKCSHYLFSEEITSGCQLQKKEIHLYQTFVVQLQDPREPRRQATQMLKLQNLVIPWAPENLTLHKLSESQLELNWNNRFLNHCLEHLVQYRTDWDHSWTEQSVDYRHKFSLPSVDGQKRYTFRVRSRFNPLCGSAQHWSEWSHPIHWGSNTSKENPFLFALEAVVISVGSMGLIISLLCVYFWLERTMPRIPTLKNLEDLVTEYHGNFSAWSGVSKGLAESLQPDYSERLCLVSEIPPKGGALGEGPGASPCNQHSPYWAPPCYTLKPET", "test": "cell-based or functional assay"}}}
{"binder": "IFNAR2-VHH5 (VHH, Member of the group m12 (IFNAR2 VHHs); also called VHH5 (IFNAR2 VHH)) VHH: QVQLQESGGGLVQPGGSLTLSCAASGFTFRNHIMSWVRQAPGKGLEWVSAISSGGGNTYYADSVKGRFTISRDNAKSTLYLQLNSLKTEDTAMYYCTKDWARPPYSDFLAPQAQGTQVTVSS", "values": [{"measurement": "Kd", "setting": "[1]", "result": 0.23, "unit": "nM"}]}
{"binder": "10Rβ-VHH1 (VHH, member of the group m13; also called VHH1 (IL-10Rβ VHH)) VHH: QVQLQESGGGSVQAGGSLRLSCAARYTYSTYCMGWFRQAPGKEREGVAAIDSDGSTSYADSVKGRFTISKDNAKNTLYLQMNSLKPEDTAMYYCASDADCDLGGSWSTRGQGTQVTVSS", "values": [{"measurement": "Kd", "setting": "[2]", "result": 1.6, "unit": "nM"}]}
{"binder": "10Rβ-VHH3 (VHH, member of the group m13; also called VHH3 (IL-10Rβ VHH)) VHH: QVQLQESGGGSVQVGGSLRLSCAASGYTYSNYCMGWFRQAPGKEREGVATIDGDGSTRYADSVKGRFTISKDNAKNTLYLQMHSLKPEDTAMYYCAADFALCDPTVVAHTDFGYWGQGTQVTVSS", "values": [{"measurement": "Kd", "setting": "[2]", "result": 2.5, "unit": "nM"}]}
{"binder": "IFNAR2-VHH8 (VHH, Member of the group m12 (IFNAR2 VHHs); also called VHH8 (IFNAR2 VHH)) VHH: QVQLQESGGGSVQAGGSLRLSCAASGFYGTYSMGWFRQAPGKEREGVAHIESDGSTRYADSMKGRFTVSKDNAKKILYLQMNSLKPEDTAVYYCAADPRPYFRTWYERARYGGQGTQVTVSS", "values": [{"measurement": "Kd", "setting": "[1]", "result": 0.54, "unit": "nM"}]}
{"binder": "10Rβ-VHH2 (VHH, member of the group m13; also called VHH2 (IL-10Rβ VHH)) VHH: QVQLQESGGGSVQTGGSLRLSCAASQVNMNSVGWFRQAPGKAREGVATISPSGGATYYTDSVKGRFTISRDNAKNTVYLQMNSLNAEDTAMYYCAADGGRDWWLLRPQTFSYWGQGTQVTVSS", "values": [{"measurement": "Kd", "setting": "[2]", "result": 2.2, "unit": "nM"}]}
{"binder": "IFNAR2-VHH2 (VHH, Member of the group m12 (IFNAR2 VHHs); also called VHH2 (IFNAR2 VHH)) VHH: QVQLQESGGGLVQPGGSLRLSCAASGFTFSDYIMTWVRQAPGKGLEWVSSINNGGRSTYYADSVKGRFTISRDNAKNTLYLQLNSLKIEDTAMYYCARDVTCWGARTGCRVSGGTQVTVSS", "values": [{"measurement": "Kd", "setting": "[1]", "result": 0.78, "unit": "nM"}]}
{"binder": "IFNAR2-VHH1 (VHH, Member of the group m12 (IFNAR2 VHHs); also called VHH1 (IFNAR2 VHH)) VHH: QVQLQESGGGSVQPGGSLRLSCAASGFTFSNYIMSWVRQAPGKGLEWVSAISGGGNTYYTDSVKGRFTISRDNAKNTLYLQLNSLKTEDTAMYYCAQNWWVAGRSPNPPGQGTQVTVSS", "values": [{"measurement": "Kd", "setting": "[1]", "result": 0.31, "unit": "nM"}]}
{"binder": "IFNAR2-VHH10 (VHH, Member of the group m12 (IFNAR2 VHHs); also called VHH10 (IFNAR2 VHH)) VHH: QVQLQESGGGLVQPGGSLRLSCAASGFTFSNHIMSWVRQAPGKGLEWVSAINSGGGSTYYRDSVKGRFTISRDNAKNTLYLQLNSLKTEDTAMYYCAKDWWRYGSDKPPGQGTQVTVSS", "values": [{"measurement": "Kd", "setting": "[1]", "result": 0.33, "unit": "nM"}]}
{"binder": "2Rβ-VHH4 (VHH) VHH: QVQLQESGGGSVQAGGSLRLSCAASGSTSCSSVMRWYRQAPGKEREFVSSINSDRRTVYADSVKGRFTISQDNAKSTLYLQMNSLKAEDTATYYCQRELYGDSWCQGNYWGQGTQVTVSS", "values": [{"measurement": "Kd", "setting": "[3]", "result": 123, "unit": "nM"}, {"measurement": "Kd", "setting": "[4]", "result": 123, "unit": "nM"}]}
{"binder": "2Rβ-VHH3 (VHH) VHH: QVQLQESGGGSVQAGGSLRLSCTASGFTFDDEDMGWYRQAPGNECELVSSIGSLGRRYYADSVKDRFAISQDNAKNTVYLQMNSLKPEDTAVYYCAATKGGSWLDSILASCQGAFGYWGQGTQVTVSS", "values": [{"measurement": "Kd", "setting": "[3]", "result": 20.2, "unit": "nM"}, {"measurement": "Kd", "setting": "[4]", "result": 20, "unit": "nM"}]}
{"binder": "IFNAR2-VHH3 (VHH, Member of the group m12 (IFNAR2 VHHs); also called VHH3 (IFNAR2 VHH)) VHH: QVQLQESGGGLVQPGGSLRLSCAASEFTFSEYSMKWVRQPPGKGLEWVSTISPSGGTTRYAESVKGRFTISRDNAKNTLYLQLNSLKTEDTAMYYCSVADWSVTQRRGQGTQVTVSS", "values": [{"measurement": "Kd", "setting": "[1]", "result": 0.21, "unit": "nM"}]}
{"binder": "2Rβ-VHH6 (VHH, also called IL-2Rβ-VHH6) VHH: QVQLQESGGGSVQAGGSLRLSCAASSYTISSVCMGWFRQAPGKEREGVAGIAPDGSTGYGDSVKGRFTISKDNAKNTLYLQMNSLKPEDTAMYYCAAASPGRCFLPRTALEPALYYNWGQGTQVTVSS", "values": [{"measurement": "Kd", "setting": "[3]", "result": 25, "unit": "nM"}, {"measurement": "Kd", "setting": "[4]", "result": 25, "unit": "nM"}]}
{"binder": "10Rβ-VHH4 (VHH, member of the group m13; also called VHH4 (IL-10Rβ VHH)) VHH: QVQLQESGGGSVQAGGSLRLSCAASGYTYSSYCMGWFRQASGKEREGVATIDSDGSTRYADSVKGRFTISKDNAKNTLYLQMNSLKPEDTAMYYCAADLADCAPSIYSDYDVAHWGQGTQVTVSS", "values": [{"measurement": "Kd", "setting": "[2]", "result": 2.2, "unit": "nM"}]}
{"binder": "MY193-R (bispecific antibody, not shown: small tags and cut ends) QVQLQESGPGLVKPSETLSLTCTVSGGSISSSSYYWGWIRQPPGKGLEWIGSIYYSGSTYYNPSLKSRVTISVDTSKNQFSLKLSSVTAADTAVYYCAGDILTGYALDYWGQGTLVTVSSGGGGSGGGGSGGGGSSYELTQPPSMSVSPGQTARITCSGDALPKQFAFWYQQKPGQAPVLVIYKDTERPSGIPERFSGSSSGTTVTLTITGVQAEDEADYYCQSPDSSGTVEVFGGGTKLTVLGGGGTSASQVQLQESGGGSVQAGGSLRLSCTASGFTFDDEDMGWYRQAPGNECELVSSIGSLGRRYYADSVKDRFAISQDNAKNTVYLQMNSLKPEDTAVYYCAATKGGSWLDSILASCQGAFGYWGQGTQVTVSS", "values": [{"measurement": "pSTAT1/3 activity in NK cells, relative to hIL-2", "setting": "[5]", "result": 3, "unit": "%"}, {"measurement": "pSTAT1 or pSTAT3 activity in CD8+ T cells, relative to hIL-2", "setting": "[5]", "result": 25, "unit": "%"}, {"measurement": "pSTAT5 activity in CD8+ T cells, relative to hIL-2", "setting": "[5]", "result": 90, "unit": "%"}, {"measurement": "pSTAT5 activity in NK cells, relative to hIL-2", "setting": "[5]", "result": 45, "unit": "%"}]}
{"binder": "10Rβ-VHH5 (VHH, member of the group m13; also called VHH5 (IL-10Rβ VHH)) VHH: QVQLQESGGGSVQAGGSLRLSCAASGYTYSSYCMGWFRQAPGKEREGVAAIDSDGSTSYADSVKGRFTISKDNAKNTLYLQMNSLKPEDTAMYYCAAEPWCTSQGRGRESAEFGYWGQGTQVTVSS", "values": [{"measurement": "Kd", "setting": "[2]", "result": 1.7, "unit": "nM"}]}
{"binder": "MY173-F (bispecific antibody, not shown: small tags and cut ends) QVQLQESGGGSVQAGGSLRLSCAASSYTISSVCMGWFRQAPGKEREGVAGIAPDGSTGYGDSVKGRFTISKDNAKNTLYLQMNSLKPEDTAMYYCAAASPGRCFLPRTALEPALYYNWGQGTQVTVSSSFQVQLQESGGGSVQAGGSLRLSCAASGYTYRDYYMGWFRQAPGREREGVASIYTRGSREGSTRYSSSVEGRFTITLDTAKNTLYLQMNSLKPEDTAMYYCAADDRTWLPRVQLGGPRENEYNYWGQGTQVTVSS", "values": [{"measurement": "pS6 activity in CD8+ T and NK cells, relative to IL-2", "setting": "[5]", "result": 50, "unit": "%"}, {"measurement": "pSTAT5 activity in CD8+ T and NK cells, relative to IL-2", "setting": "[5]", "result": "70 to 100", "unit": "%"}]}
{"binder": "2Rβ-VHH1 (VHH, also called IL-2Rβ-specific VHH clone 1) VHH: QVQLQESGGGSVQAGGSLRLSCVTSGYTYSSANMAWFRQAPGKEREGVAIITPSGRATTYADSVKGRFTISRDNAANTLYLQMNSLKPEDTAMYYCAADTPPYSGLWYAERTYNYWGQGTQVTVSS", "values": [{"measurement": "Kd", "setting": "[3]", "result": 10.9, "unit": "nM"}, {"measurement": "Kd", "setting": "[4]", "result": 11, "unit": "nM"}]}
